Assay results reported in US20230046828A1 (OXFORD UNIVERSITY INNOVATION, published 2023).

Key:
[1] = molecular target: T1, RAGE-Fc chimera protein (BioTechne, 1145-RG) (UniProt Q15109 24-344); experiment: BLI: RAGE-Fc on AHC sensors, HMGB1 construct 0-25 µM in solution; kinetics plot
T1 construct: Bought reagent; also called Fc-RAGE; not shown: CH domain of IgG (Fc)
Description: (§1) RAGE-Fc was immobilized in the surface of AHC sensors and dipped in rising concentration of different HMGB1 constructs. Two experiments were run with different concentration ranges: the three columns of graphs in the left, 0 to 22.22 μM HMGB1 over 9 steps; on the right, 0 to 25 μM over 7 steps. Both are color-coded by concentration (top). Colors indicate the specific construct concentration. Each graph corresponds to a single sensor (replicate).
(§2) Pre-hydrated streptavidin Octet Biosensors (FortéBio 18-5019) were coated with 4 μM solutions of biotinylated HMGB1 proteins in 10 mM HEPES, pH 7.5, 150 mM NaCl (Base buffer-BB) plus, 0.5 mM TCEP (60″ baseline, 60″ binding). Nonspecific binding was minimized by incubation for 3′ in BB+1% BSA+0.05% Tween-20 (Kinetics Buffer, KB) prior to kinetics assays. […] An OctetRed 384 instrument was used for these experiments. Kinetics data were extracted with DataAnalysis 9.0 (FortéBio). Response at equilibrium REq was plotted against concentration in a Michaelis-Menten saturation plot to calculate kD/Bₘₐₓ (saturation plot of concentration against rEq). Kinetic rates (association rate; kₒₙ and dissociation rate; koff) were derived from the direct measurements of each parameter from all the association and dissociation steps in the interferogram, and fitted to a horizontal line (mean) across all measurements. Data from each replicate run were pooled in the same manner to calculate the overall mean. For measuring RAGE binding kinetics to HMGB1, 15 μg/mL RAGE-Fc in PBS+0.1% BSA+0.02% Tween-20 was immobilized on the surface of anti-IgG biosensors (AHC, 18-5060) over 30″ and dipped in serial concentrations of each HMGB1 construct (60″ baseline, 200″ association/dissociation) and fitted in the same manner to derive kinetic parameters.

[2] = molecular target: T1, RAGE-Fc chimera protein (BioTechne, …); experiment: BLI: RAGE-Fc on AHC sensors, HMGB1 construct 0-25 µM in solution; saturation fit
Description: as §1, §2

[3] = molecular target: T1, RAGE-Fc chimera protein (BioTechne, …); experiment: hybrid ELISA: HMGB1 construct coated, RAGE-Fc titrated, anti-human IgG-HRP, OD450 normalized to DS-HMGB1; saturation fit
Description: (§3) Nonspecific binding was blocked by incubation with 10% BSA in PBS for 2 h, at 20-25° C. A concentration range of RAGE-Fc chimera protein (BioTechne, 1145-RG; 0-640 nM in 1:4 dilutions) was added in 10% BSA/PBS and allowed to bind for 2 h, at 4° C. Bound FC chimera was detected by incubation with Anti-Human IgG HRP (Agilent Dako P021402-2) diluted 1:10000 in 1% BSA/PBS for 2 h, at 20-25° C. Between each of these 3 steps, the plate was washed with 100 μL PBST, three times.
(§4) OD 450 was measured as a readout (FluoStar OMEGA, BMG Labtech) and plotted as a saturation fit against 2× RAGE-Fc concentration (as the chimera is a RAGE dimer).

[4] = molecular target: T2, CXCL12 (CXC Ligand 12) (UniProt O62657 22-89); experiment: BLI, biotinylated HMGB1 construct on streptavidin sensor, CXCL12 0-150 µM in solution; Michaelis-Menten (saturation) Req fit
T2 construct: mature; Untagged in BLI and NMR; CXCL12-His6 was used at 1 µM on the HMGB1 SPOT peptide arrays; also called CXCL12A-c021, wt 1-67, no tag; CXCL12-His6
Description: as §2

[5] = molecular target: T2, CXCL12 (CXC Ligand 12); experiment: BLI, biotinylated HMGB1 construct on streptavidin sensor, CXCL12 0-150 µM in solution; kinetics rates derived from interferogram
Description: as §2

[6] = molecular target: T1, RAGE-Fc chimera protein (BioTechne, …); experiment: BLI, RAGE-Fc on AHC sensors
Description: as §2

[7] = molecular target: T1, RAGE-Fc chimera protein (BioTechne, …); experiment: hybrid ELISA: HMGB1 construct coated, RAGE-Fc titrated, anti-human IgG-HRP, OD450 normalized to DS-HMGB1; saturation fit (Kd cell: Invalid fit)
Description: as §3, §4

T1 sequence (Q15109 24-344, change not shown): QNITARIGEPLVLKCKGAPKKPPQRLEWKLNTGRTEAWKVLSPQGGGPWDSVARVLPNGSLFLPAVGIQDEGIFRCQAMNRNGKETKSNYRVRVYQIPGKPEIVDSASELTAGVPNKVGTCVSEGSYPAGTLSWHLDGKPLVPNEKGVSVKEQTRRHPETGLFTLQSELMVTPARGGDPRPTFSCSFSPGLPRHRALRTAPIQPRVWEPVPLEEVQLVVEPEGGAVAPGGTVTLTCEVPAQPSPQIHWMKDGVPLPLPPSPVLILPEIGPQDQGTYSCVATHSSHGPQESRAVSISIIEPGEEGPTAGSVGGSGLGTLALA
T2 sequence (P48061 22-89): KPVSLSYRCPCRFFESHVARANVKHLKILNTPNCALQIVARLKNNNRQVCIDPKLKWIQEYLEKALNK

Row | Binder | Kd [1] | koff [1] | kon [1] | Kd [2] | Kd [3] | Kd [4] | Kd [5] | koff [5] | kon [5] | Kd [6] | fold association rate against FR-HMGB1 [6] | fold dissociation rate against FR-HMGB1 [6] | Bmax [7]
1 | fully-reduced HMGB1, full-length (1-214) (ligand, cysteines reduced (Cys 22, Cys 44, Cys 105), Tags differ by assay: biotinylated (c011) in BLI with CXCL12, His6-tagged in the reverse peptide array, TEV-cleaved in the RAGE ELISA and BLI; also called FR-HMGB1; FR FL-HMGB1 (c011)) GKGDPKKPRGKMSSYAFFVQTCREEHKKKHPDASVNFSEFSKKCSERWKTMSAKEKGKFEDMAKADKARYEREMKTYIPPKGETKKKFKDPNAPKRPPSAFFLFCSEYRPKIKGEHPGLSIGDVAKKLGEMWNNTAADDKQPYEKKAAKLKEKYEKDIAAYRAKGKPDAAKKGVVKAEKSKKKKEEEEDEEDEEDEEEEEDEEDEDEEEDDDDE | 800 nM | 0.041 s⁻¹ | 51000 M⁻¹ s⁻¹ | 2300 nM | 86.1 nM | 15.3 µM | 20.9 µM | 0.181 s⁻¹ | 9000 M⁻¹ s⁻¹ |  |  |  | 
2 | non-oxidizable 3S-HMGB1, full-length (1-214) (ligand, Biotinylated (c022) in BLI with CXCL12, His6-tagged in the reverse peptide array; also called 3S-FL HMGB1 (c022)) GKGDPKKPRGKMSSYAFFVQTSREEHKKKHPDASVNFSEFSKKSSERWKTMSAKEKGKFEDMAKADKARYEREMKTYIPPKGETKKKFKDPNAPKRPPSAFFLFSSEYRPKIKGEHPGLSIGDVAKKLGEMWNNTAADDKQPYEKKAAKLKEKYEKDIAAYRAKGKPDAAKKGVVKAEKSKKKKEEEEDEEDEEDEEEEEDEEDEDEEEDDDDE | 900 nM | 0.015 s⁻¹ | 17000 M⁻¹ s⁻¹ | 3000 nM | 7.22 nM | 8.79 µM | 11.7 µM | 0.145 s⁻¹ | 12000 M⁻¹ s⁻¹ |  |  |  | 
3 | FR-HMGB1 Box A 8-78 (helical-only) (ligand, biotinylated in BLI, also called minimal Box A 8-78; c027; not shown: biotinylation tag (BLI) or His6 tag (reverse peptide array)) PRGKMSSYAFFVQTCREEHKKKHPDASVNFSEFSKKCSERWKTMSAKEKGKFEDMAKADKARYEREMKTYI |  |  |  |  |  | 17.5 µM | 18.7 µM | 0.312 s⁻¹ | 17000 M⁻¹ s⁻¹ |  |  |  | 
4 | FR-HMGB1 Box B 94-162 (helical-only) (ligand, also: biotin or His6 tag in some assays, sequence not given here, also called HMGB1A-c028; not shown: C-terminal Avi / biotinylation tag (BLI, NMR) or His6 tag (reverse peptide array)) PKRPPSAFFLFCSEYRPKIKGEHPGLSIGDVAKKLGEMWNNTAADDKQPYEKKAAKLKEKYEKDIAAYR |  |  |  |  |  | 65 µM | 39 µM | 0.64 s⁻¹ | 16000 M⁻¹ s⁻¹ |  |  |  | 
5 | FR-HMGB1 Box A 1-88 (full HMG Box with flanking regions) (ligand, biotinylated in BLI, also called extended box A 1-88; c037; not shown: biotinylation tag) GKGDPKKPRGKMSSYAFFVQTCREEHKKKHPDASVNFSEFSKKCSERWKTMSAKEKGKFEDMAKADKARYEREMKTYIPPKGETKKKF |  |  |  |  |  | 12.6 µM | 6.1 µM | 0.079 s⁻¹ | 13000 M⁻¹ s⁻¹ |  |  |  | 
6 | FR-HMGB1 Box B 89-174 (full HMG Box with flanking regions) (ligand, biotinylated in BLI and NMR, also called complete Box B; not shown: C-terminal biotinylation tag) SMKDPNAPKRPPSAFFLFCSEYRPKIKGEHPGLSIGDVAKKLGEMWNNTAADDKQPYEKKAAKLKEKYEKDIAAYRAKGKPDAAKKGV |  |  |  |  |  | 8.19 µM | 7.1 µM | 0.159 s⁻¹ | 22000 M⁻¹ s⁻¹ |  |  |  | 
7 | disulfide HMGB1, full-length (ligand, disulfide bond between Cys 22 and Cys 44, also called DS-HMGB1; FL-DS-HMGB1) GKGDPKKPRGKMSSYAFFVQTCREEHKKKHPDASVNFSEFSKKCSERWKTMSAKEKGKFEDMAKADKARYEREMKTYIPPKGETKKKFKDPNAPKRPPSAFFLFCSEYRPKIKGEHPGLSIGDVAKKLGEMWNNTAADDKQPYEKKAAKLKEKYEKDIAAYRAKGKPDAAKKGVVKAEKSKKKKEEEEDEEDEEDEEEEEDEEDEDEEEDDDDE | 200 nM | 0.043 s⁻¹ | 215000 M⁻¹ s⁻¹ | 1300 nM | 4.35 nM |  |  |  |  | 200 to 1300 nM |  |  | 
8 | dBB12L (double Box B HMGB1 construct with 12-residue linker) (ligand, also called dBB12L-HMGB1; dBB-HMGB1) KDPNAPKRPPSAFFLFCSEYRPKIKGEHPGLSIGDVAKKLGEMWNNTAADDKQPYEKKAAKLKEKYEKDIAAYRAKGKPDAAKKGVKDPNAPKRPPSAFFLFCSEYRPKIKGEHPGLSIGDVAKKLGEMWNNTAADDKQPYEKKAAKLKEKYEKDIAAYRAKGKPDAAKKGV | 1300 nM | 0.206 s⁻¹ | 164000 M⁻¹ s⁻¹ | 5500 nM |  |  |  |  |  |  | 3 fold | 5 fold | 0.06 nM
9 | DS Box A 1-88 (full HMG Box construct with flanking regions) (ligand, oxidized (disulfide Cys 22-Cys 44), also called oxidized Box A alone) GKGDPKKPRGKMSSYAFFVQTCREEHKKKHPDASVNFSEFSKKCSERWKTMSAKEKGKFEDMAKADKARYEREMKTYIPPKGETKKKF | 15600 nM | 0.439 s⁻¹ | 28000 M⁻¹ s⁻¹ | 53400 nM |  |  |  |  |  |  |  |  | 0.08 nM
10 | DS-HMGB1 1-184 (ligand, oxidized Box A (disulfide Cys 22-Cys 44)) GKGDPKKPRGKMSSYAFFVQTCREEHKKKHPDASVNFSEFSKKCSERWKTMSAKEKGKFEDMAKADKARYEREMKTYIPPKGETKKKFKDPNAPKRPPSAFFLFCSEYRPKIKGEHPGLSIGDVAKKLGEMWNNTAADDKQPYEKKAAKLKEKYEKDIAAYRAKGKPDAAKKGVVKAEKSKKKK | 200 nM | 0.067 s⁻¹ | 349000 M⁻¹ s⁻¹ | 500 nM | 33.9 nM |  |  |  |  |  |  |  | 
11 | DS-HMGB1 1-164 (ligand, oxidized Box A (disulfide Cys 22-Cys 44)) GKGDPKKPRGKMSSYAFFVQTCREEHKKKHPDASVNFSEFSKKCSERWKTMSAKEKGKFEDMAKADKARYEREMKTYIPPKGETKKKFKDPNAPKRPPSAFFLFCSEYRPKIKGEHPGLSIGDVAKKLGEMWNNTAADDKQPYEKKAAKLKEKYEKDIAAYRAK | 900 nM | 0.152 s⁻¹ | 178000 M⁻¹ s⁻¹ | 3100 nM |  |  |  |  |  |  |  |  | 0.2 nM
